Measurements taken from US20120094909A1 (Bristol-Myers Squibb, published 2012).
Positions count from the first letter of the chain named. Where “and” joins values, the source holds several entries; their conditions need not be identical. Identical values can stand only once. Like-named read-outs stand apart in the source and are kept apart here.

Experiments:
[1] = target: T1, human PCSK9 (proprotein convertase subtilisin kexin type 9) (human, UniProt Q8NBP7 31-692); experiment: PCSK9:ATI-972 FRET at 5 nM human PCSK9, competitor biotinylated ATI-972
T1 construct: immobilized directly (ProteOn), biotinylated (Octet) or in solution, according to the assay; also called hPCSK9; PCSK9-AF647 (labelled form)

[2] = target: T2, murine serum albumin (mouse, UniProt P07724 25-608); experiment: SPR, captured albumin
T2 construct: also called MuSA; mouse serum albumin
Protocol: (§1) The kinetics of selected SABA clones purified from HTPP and/or midscaled material described in Examples 5A and 5B were determined by capturing the respective serum albumin (HSA/RhSA/MuSA) on the surface of a Biasensor CMS chip and flowing a concentration series of SABAs over both the reference flow cell and the captured albumins. In addition, binding to albumin was carried out under various pH conditions ranging from pH 5.5 to pH 7.4.

[3] = target: T1, human PCSK9 (proprotein convertase …); experiment: cell-based or functional assay
[4] = target: T1, human PCSK9 (proprotein convertase …); experiment: cell-based or functional assay; remark: listed apart in the source
[5] = target: T1, human PCSK9 (proprotein convertase …); experiment: PCSK9:EGFA FRET, competitor EGFA peptide
[6] = target: T1, human PCSK9 (proprotein convertase …); experiment: ITC, 37 C
[7] = target: T1, human PCSK9 (proprotein convertase …); experiment: PCSK9:EGFA FRET at 5 nM PCSK9, competitor EGFA peptide
[8] = target: T1, human PCSK9 (proprotein convertase …); experiment: BLI (Octet Red), 37 C
Protocol: (§2) Tips were then immersed into a buffer-only well for observation of Adnectin dissociation. Experiments were performed in a temperature controlled environment at either 25 or 37° C., and the oscillation speed was set at 1500 rpm.
(§3) Binding interaction analysis was performed using proprietary software from Fortebio (Fortebio Data Analysis Software version 6.3.0.36). Global fits were performed for all samples, using a 1:1 binding model. The nature of these global fits constrained all values of concentration to a single pair of association and dissociation rates that were themselves constrained to each other. Affinities (KD), association and dissociation rates were averaged over the various loading levels used in the analysis.

[9] = target: T1, human PCSK9 (proprotein convertase …); experiment: SPR (ProteOn), 25 C
[10] = target: T3, Cynomolgus PCSK9 (cynomolgus monkey, UniProt A0A7N9D9N8 150-747); experiment: SPR (ProteOn), PCSK9 immobilized directly, 25 C
T3 construct: also called cyno PCSK9; cPCSK9
Protocol: (§4) The binding characteristics were characterized by Surface Plasmon Resonance (SPR). […] This allowed kinetic determination in the absence of regeneration. […] Evaluation of the kinetic parameters was performed using the Langmuir interaction model and constant parameter fitting with the ProteOn Manager software.

[11] = target: T4, human PCSK9 (proprotein convertase subtilisin kexin type 9) (human, UniProt Q8NBP7 31-692); experiment: cell-based or functional assay; remark: listed apart in the source
[12] = target: T4, human PCSK9 (proprotein convertase …); experiment: FRET direct binding, anti-his6 antibody
Source text: (§5) Table 11 summarizes the overall data from these three FRET assays.

[13] = target: T4, human PCSK9 (proprotein convertase …); experiment: BLI, biotinylated hPCSK9 on sensor tips
[14] = target: T4, human PCSK9 (proprotein convertase …); experiment: FRET, competitor ATI000972
Source text: as §5

[15] = target: T4, human PCSK9 (proprotein convertase …); experiment: SPR ProteOn, 25 C
Protocol: as §4

[16] = target: T4, human PCSK9 (proprotein convertase …); experiment: BLI Octet Red, 37 C
Protocol: as §2, §3

[17] = target: T4, human PCSK9 (proprotein convertase …); experiment: FRET, competitor EGFA peptide
Source text: as §5

[18] = target: cynomolgus monkey PCSK9 (cynomolgus monkey, UniProt A0A7N9D9N8 150-747); experiment: FRET, competitor EGFA peptide
Source text: as §5

[19] = target: T4, human PCSK9 (proprotein convertase …); experiment: SPR ProteOn, PCSK9 immobilized, 25 C
Protocol: as §4

[20] = target: T5, human serum albumin (human, UniProt P02768 25-609); experiment: SPR (Biacore), albumin captured on chip, SABA in flow
T5 construct: also called HSA
Protocol: as §1

[21] = target: T6, rhesus serum albumin (rhesus, UniProt Q28522 17-600); experiment: as above
T6 construct: also called RhSA
Protocol: as §1

[22] = target: T7, cynomolgus monkey PCSK9 (cynomolgus monkey, UniProt A0A7N9D9N8 150-747); experiment: FRET, competitor EGFA peptide
T7 construct: also called cyno PCSK9; cPCSK9
Source text: as §5

[23] = target: T4, human PCSK9 (proprotein convertase …); experiment: ITC, 37 C, average of 3 experiments
Protocol: Solution phase binding was measured in 25 mM HEPES, pH 7.41, 150 mM NaCl at 37° C.

[24] = target: T4, human PCSK9 (proprotein convertase …); experiment: KinExA, solution phase
Protocol: Due to technical limitations, the lowest concentration of Adnectins that could be tested was 1 nM.

B1: ATI001114 (designed binder)
chain: MGVSDVPRDLEVVAATPTSLLISWVPPSDDYGYYRITYGETGGNSPVQEFTVPIGKGTATISGLKPGVDYTITVYAVEFPWPHAGYYHRPISINYRTGSGCHHHHHH
modifications: 40 kDa two-branched PEG on the cysteine of the C-terminal tail (GSGC)
notes: also called ATI1114
[1]
  EC50: 0.8 nM

B2: SABA1.1 (designed binder)
chain: MGVSDVPRDLEVVAATPTSLLISWHSYYEQNSYYRITYGETGGNSPVQEFTVPYSQTTATISGLKPGVDYTITVYAVYGSKYYYPISINYRTEIDKPSQHHHHHH
notes: core 1 10Fn3 with His6; also called clone 1318H04
[2]
  binding result: no binding

B3: 1784F03 (designed binder)
chain: MGVSDVPRDLEVVAATPTSLLISWRPPIHAYGYYRITYGETGGNSPVQEFTVPIVEGTATISGLKPGVDYTITVYAVEYTFKHSGYYHRPISINYRTEIDKPSQHHHHHH
[3]
  LDLR Depletion (% inhibition at 75 nM): 150%
  LDLR Depletion EC50: 26 nM
[4]
  DiI-LDL uptake in HepG2 cells, EC50: 210 nM
  EC50 (nM), PCSK9-induced LDLR depletion from HepG2 cell surface: 16 nM
  percentage of PCSK9 inhibition at 75 nM: 150%
[5]
  EC50: 2 nM
[6]
  Kd: 3.8 nM

B4: 1813E02 (designed binder)
chain: B3 chain with R25S, I28A, H29N, A30G, I54V, V55G, E56R, F81Y, H83G
[3]
  LDLR Depletion EC50: 16 nM
[5]
  EC50: 1.3 nM
[6]
  Kd: < 2 nM

B5: 2013E01 (designed binder)
chain: MGVSDVPRDLEVVAATPTSLLISWVPPSDDYGYYRITYGETGGNSPVQEFTVPIGKGTATISGLKPGVDYTITVYAVEFPWPHAGYYHRPISINYRTEIDKPSQHHHHHH
notes: unmodified (not PEGylated) Adnectin; also called ATI001081
[3]
  LDLR Depletion (% inhibition at 75 nM): 166%
  LDLR Depletion EC50: 10 nM
[4]
  DiI-LDL uptake in HepG2 cells, EC50: 160 nM
  EC50 (nM), PCSK9-induced LDLR depletion from HepG2 cell surface: 12.4 nM
  PCSK9-induced LDLR depletion in HepG2 cells, EC50: 9 nM
  percentage of PCSK9 inhibition at 75 nM: 152%
[7]
  EC50: 3.7 nM
[8]
  Kd: 1.51 nM
[9]
  Kd: 0.29 nM
[10]
  Kd: 8 nM
[1]
  EC50: 2.8 nM
[5]
  EC50: 1.6 nM

B6: 2011H05 (designed binder)
chain: B3 chain with R25V, P27S, I28S, I54V, V55G, E56V, T80A, K82E, H83G, S84A
notes: also called ATI001091
[3]
  LDLR Depletion (% inhibition at 75 nM): 198%
  LDLR Depletion EC50: 12 nM
[4]
  EC50 (nM), PCSK9-induced LDLR depletion from HepG2 cell surface: 8.85 nM
  percentage of PCSK9 inhibition at 75 nM: 177%
[9]
  Kd: 0.08 nM
[5]
  EC50: 2.7 nM

B7: 2012A04 (designed binder)
chain: B3 chain with I28S, H29N, A30G, Y31H, I54V, V55N, Y79F, T80P, H83W
[3]
  LDLR Depletion (% inhibition at 75 nM): 144%
  LDLR Depletion EC50: 12 nM
[4]
  DiI-LDL uptake in HepG2 cells, EC50: 130 nM
  EC50 (nM), PCSK9-induced LDLR depletion from HepG2 cell surface: 7.78 nM
  percentage of PCSK9 inhibition at 75 nM: 190%
[9]
  Kd: 0.25 nM
[10]
  Kd: 24 nM
[5]
  EC50: 2.1 nM

B8: 1459D05 (designed binder)
chain: B3 chain with R25P, I28S, A30G, I54P, V55G, E56K, T80P, F81Y
notes: also called ATI000891; ATI-891
[11]
  LDLR Depletion EC50: > 200 nM
[12]
  EC50: 3.9 nM
[13]
  kon: 149000 M⁻¹ s⁻¹ and 108000 M⁻¹ s⁻¹
[14]
  IC50: 14 nM
[15]
  Kd: 1.58 nM
[16]
  Kd: 14.4 nM
[17]
  EC50: 5.8 nM
  IC50: 4 nM
[18]
  EC50: > 1000 nM
  IC50: 2300 nM
[19]
  Kd: 1.58 nM
  koff: 0.00018 s⁻¹
  kon: 113000 M⁻¹ s⁻¹

B9: 1923B02 (designed binder)
chain: B3 chain with R25T, I28P, H29K, A30G, I54V, V55G, F81Y, K82N, H83G, S84A
notes: Anti-PCSK9 Adnectin, His6-tagged
[11]
  LDLR Depletion EC50: 23 nM
[12]
  EC50: 3.2 nM
[14]
  IC50: 3.2 nM
[15]
  Kd: 0.17 nM
[17]
  EC50: 2.3 nM
  IC50: 2.3 nM
[18]
  EC50: 53.5 nM

B10: SABA3.1 (designed binder)
chain: MGVSDVPRDLEVVAATPTSLLISWSNDGPGLSYYRITYGETGGNSPVQEFTVPSSQTTATISGLKPGVDYTITVYAVSYYTKKAYSAGPISINYRTEIDKPSQHHHHHH
notes: also called clone 1245H07
[20]
  Kd: 863 nM
  koff: 0.0682 s⁻¹
[21]
  Kd: 431 nM
  koff: 0.0337 s⁻¹

B11: SABA3.1 (designed binder)
chain: B10 chain
notes: also called clone 1245H07
[2]
  binding result: no binding

B12: SABA2.1 (designed binder)
chain: MGVSDVPRDLEVVAATPTSLLISWPKYDKTGHYYRITYGETGGNSPVQEFTVPTRQTTATISGLKPGVDYTITVYAVSKDDYYPHEHRPISINYRTEIDKPSQHHHHHH
[2]
  binding result: no binding

B13: 2382D05 (designed binder)
chain: MGVSDVPRDLEVVAATPTSLLISWDAPADGGYGYYRITYGETGGNSPVQEFTVPVSKGTATISGLKPGVDYTITVYAVEFDFPGAGYYHRPISINYRTEIDKPSQHHHHHH
notes: Anti-PCSK9 Adnectin, His6-tagged; Same entry as 2451B06
[13]
  Kd: 0.314 nM
  koff: 0.000157 s⁻¹
  kon: 505000 M⁻¹ s⁻¹
[16]
  Kd: 0.314 nM
[17]
  EC50: 2.6 nM
[22]
  EC50: 57.8 nM

B14: 2451B06 (designed binder)
chain: B13 chain
notes: Anti-PCSK9 Adnectin, His6-tagged; also called 2451B06 (equivalent to 2382D05)
[17]
  EC50: 4.5 nM
[22]
  EC50: 57.8 nM

B15: SABA4.1 (designed binder)
chain: MGVSDVPRDLEMVAATPTSLLISWEDDSYYSRYYRITYGETGGNSPVQEFTVPSDLYTATISGLKPGVDYTITVYAVTYDVTDLIMHEPISINYRTEIDKPSQHHHHHH
[2]
  binding result: no binding

B16: ATI001174 (designed binder)
chain: MGVSDVPRDLEVVAATPTSLLISWVPPSDDYGYYRITYGETGGNSPVQEFTVPIGKGTATISGLKPGVDYTITVYAVEFPWPHAGYYHRPISINYRTEIEKPCQ
modifications: PEG on the cysteine of the C-terminal tail (EIEKPCQ)
notes: also called ATI-1174; ATI1174
[4]
  PCSK9-induced LDLR depletion in HepG2 cells, EC50: 8 nM
  inhibition of PCSK9-AF647 intracellular fluorescence in HepG2 cells, EC50: 10 nM
[7]
  EC50: 1.9 nM

B17: ATI001174 (designed binder)
chain: B16 chain
modifications: PEGylated on the cysteine of the C-terminal EIEKPCQ tail
notes: PEGylated, non-His-tagged cysteine mutant of 2013E01; also called ATI-1174; ATI1174
[23]
  Ka: 7.5e+08 M⁻¹
  Kd: 1.3 nM
  Stoichiometry (N): 0.857
  ΔH: -29.9 kcal/mol
  ΔS: -55.8 cal/mol °C
[13]
  Kd: 7.4 nM
  koff: 0.000901 s⁻¹
  kon: 126000 M⁻¹ s⁻¹
[24]
  Kd: 0.223 nM
